According to patent US20220118063A1:

Target: FVIII (B region deleted), purchased from American Pharma Wholesale (human) (UniProt P00451)
Assay: cell-based or functional assay

UniProt P00451, sequence (P00451 other isoform, or with tags, fused parts or gaps, chain 1 of 2): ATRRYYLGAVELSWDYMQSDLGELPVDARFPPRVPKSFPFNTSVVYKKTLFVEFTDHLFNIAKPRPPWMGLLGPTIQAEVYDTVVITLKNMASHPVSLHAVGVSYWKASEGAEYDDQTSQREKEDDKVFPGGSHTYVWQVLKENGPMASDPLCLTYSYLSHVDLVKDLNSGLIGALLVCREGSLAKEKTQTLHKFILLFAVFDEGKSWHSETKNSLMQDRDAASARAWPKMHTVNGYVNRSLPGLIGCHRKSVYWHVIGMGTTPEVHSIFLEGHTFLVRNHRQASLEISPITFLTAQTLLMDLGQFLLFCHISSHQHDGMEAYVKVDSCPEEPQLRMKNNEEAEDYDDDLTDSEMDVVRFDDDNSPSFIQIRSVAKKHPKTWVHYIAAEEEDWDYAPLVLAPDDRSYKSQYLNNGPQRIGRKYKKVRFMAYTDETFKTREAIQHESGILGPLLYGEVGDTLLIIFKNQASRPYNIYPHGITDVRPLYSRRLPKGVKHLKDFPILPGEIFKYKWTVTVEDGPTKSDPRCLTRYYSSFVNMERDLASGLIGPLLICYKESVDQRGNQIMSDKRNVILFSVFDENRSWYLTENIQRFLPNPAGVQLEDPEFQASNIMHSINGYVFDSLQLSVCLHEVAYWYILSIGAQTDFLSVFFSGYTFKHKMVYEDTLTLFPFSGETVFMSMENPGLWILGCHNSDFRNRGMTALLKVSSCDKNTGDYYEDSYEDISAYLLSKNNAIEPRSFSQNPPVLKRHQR
UniProt P00451, sequence (P00451 1668-2351, stated change not applied, chain 2 of 2): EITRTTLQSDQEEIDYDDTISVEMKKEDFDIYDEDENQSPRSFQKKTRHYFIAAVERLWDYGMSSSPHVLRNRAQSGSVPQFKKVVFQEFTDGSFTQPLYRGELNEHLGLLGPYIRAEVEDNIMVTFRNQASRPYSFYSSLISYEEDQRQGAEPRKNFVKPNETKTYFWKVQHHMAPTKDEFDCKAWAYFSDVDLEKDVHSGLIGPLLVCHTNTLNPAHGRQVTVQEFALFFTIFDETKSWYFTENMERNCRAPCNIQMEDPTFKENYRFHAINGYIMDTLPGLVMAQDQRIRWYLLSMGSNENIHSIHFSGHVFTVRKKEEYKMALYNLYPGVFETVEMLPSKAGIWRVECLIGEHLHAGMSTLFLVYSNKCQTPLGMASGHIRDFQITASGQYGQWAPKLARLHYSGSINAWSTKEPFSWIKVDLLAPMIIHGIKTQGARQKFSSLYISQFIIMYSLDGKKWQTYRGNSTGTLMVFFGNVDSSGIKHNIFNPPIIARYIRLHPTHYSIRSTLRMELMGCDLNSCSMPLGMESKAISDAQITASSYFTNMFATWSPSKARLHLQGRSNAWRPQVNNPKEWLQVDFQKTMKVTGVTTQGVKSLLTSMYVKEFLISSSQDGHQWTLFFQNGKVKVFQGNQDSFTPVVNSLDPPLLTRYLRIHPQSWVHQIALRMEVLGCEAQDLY

- fold decrease in specific activity of CM211 in the APTT against the Coatest assay: 6.5 fold
Substance: CM110 (expressed from plasmid pCM110RMHM: D′D3 region of human von Willebrand Factor with cys1099 and cys1142 changed to alanine, 56 amino acid glycine serine rich linker, full length human albumin, no His tag) (from UniProt P04275 764-1247)
